# Where no end group is shown, it is not given here. The star is where a group is joined. FITC = O=C1OC2(c3ccc(O)cc3Oc3cc(O)ccc32)c2ccc(NC(=S)*)cc21; mSF = 3-benzenesulfonyl fluoride, O=S(=O)(F)c1cccc(*)c1
# Target: T1, HLA-E (Homo sapiens, UniProt P13747)
# T1 construct: [HLAE(hu)(22-305)]-Avitag]; made in house
# Experiment: Binding to HLA-E by Fluorescence Polarization (FP)
# Conditions: Table 18
# Method: This example describes the analysis of binding of modified VL9 based peptides to HLA-E by Fluorescence Polarization (FP).
# Briefly, proteins and VL9 or Qdm derived peptides were produced as described in EXAMPLE 2 and EXAMPLE 3 and binding to HLA-E was measured with Fluorescence Polarization.
# T1 sequence (P13747 22-305): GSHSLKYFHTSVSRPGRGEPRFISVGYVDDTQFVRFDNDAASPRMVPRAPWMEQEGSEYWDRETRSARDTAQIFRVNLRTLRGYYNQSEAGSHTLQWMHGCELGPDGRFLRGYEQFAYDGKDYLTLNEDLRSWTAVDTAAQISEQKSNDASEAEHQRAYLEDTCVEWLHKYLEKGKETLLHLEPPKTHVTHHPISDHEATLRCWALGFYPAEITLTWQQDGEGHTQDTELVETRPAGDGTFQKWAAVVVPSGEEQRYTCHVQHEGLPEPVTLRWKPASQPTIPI
# T1 sequence (P61769 21-119 partner): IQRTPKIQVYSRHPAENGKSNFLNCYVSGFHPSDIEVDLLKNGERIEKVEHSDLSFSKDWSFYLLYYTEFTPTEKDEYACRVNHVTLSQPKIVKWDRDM
row,Substance,FP result
1,ALCAPRLCL (cysteine pairing not given here) [Peptide P21],Binding
2,Ala-Leu-Cys-Trp-Arg-Val-Pro-Cys-Thr-Gly-Gly-Lys(FITC) (H-ALCWRVPCTGGK(FITC)-NH2; cysteine pairing not given here) [P20(FITC)],Binding
3,Ala-Leu-Cys-Ala-Pro-Arg-Leu-Cys-Leu-Gly-Gly-Lys(FITC) (ALCAPRLCLGGK(FITC); cysteine pairing not given here) [P21(FITC)],Binding
4,Ala-Met-Cys-Gly-Pro-Arg-Cys-Leu-Trp-Gly-Gly-Lys(FITC) (AMCGPRCLWGGK(FITC); cysteine pairing not given here) [P1(FITC)],Binding
5,Ala-Met-Cys-Gly-Ala-Leu-Cys-Leu-Phe-Gly-Gly-Lys(FITC) (AMCGALCLFGGK(FITC); cysteine pairing not given here) [P32(FITC)],Binding
6,Ala-Leu-Cys-Arg-Trp-Arg-Cys-Leu-Tyr-Gly-Gly-Lys(FITC) (ALCRWRCLYGGK(FITC); cysteine pairing not given here) [P28(FITC)],Binding
7,AMCGALCLF (cysteine pairing not given here) [Peptide P32],Binding
8,Ala-Leu-Cys-Trp-Arg-Val-Pro-Cys-Thr (ALCWRVPCT-NH2; cysteine pairing not given here) [Peptide P20],Binding
9,Val-Met-Ala-Pro-Lys(FITC)-Thr-Leu-Phe-Leu (VMAPK(FITC)TLFL) [VL9—5Lys(FITC)],Exchange

# Target: T2, CD94/NKG2A binding to HLA-E (Homo sapiens, UniProt P13747)
# T2 construct: [HLAE(hu)(22-305)]-Avitag]; made in house
# T2 sequence (P13747 22-305): as the sequence (P13747 22-305) above
# T2 sequence (P61769 21-119 partner): as the sequence (P61769 21-119 partner) above
# Experiment: Biolayer interferometry (BLI): inhibition of CD94/NKG2A binding to peptide-loaded HLA-E
# Conditions: BLI after a 2 h incubation of [HLA-E+VL9] with the electrophilic peptide
# Method: Proteins were produced as described in EXAMPLE 2 and peptides were synthesized as described in EXAMPLE 3.
# BLI was performed on a ForteBio Octet Red96e instrument. All proteins were diluted in 1× Kinetic Buffer (10× Kinetic buffer, Sartorius 181105) diluted in 1×PBS. A Blocking Buffer step was introduced to lower non-specific binding to the streptavidin (SA) tips by diluting 5% bovine serum albumin (BSA) and 20 μg/mL Biocytin (Sigma B4261) in 1× Kinetic Buffer. Refolded and biotinylated [HLA-E+VL9] complexes were loaded onto SA biosensors (Forte 18-5019) at ˜5 μg/ml (100 nM) with the following steps: 60 sec baseline in 1× Kinetic Buffer, 180 sec loading, 60 sec blocking in Blocking Buffer and 60 sec baseline in 1× Kinetic Buffer, all at 25° C. and 1000 rpm. hSCD and oaFC-hSCD binding to immobilized HLA-E/B2M complexes was monitored at 200 nM by a 90 sec association step, followed by a 120 sec dissociation step. Data correction was performed as follows: first, aligning the data to the average of the last baseline step on the y-axis; second, by aligning the data to the dissociation step for inter-step correction; and third by filtering the data using Savitzky-Golay Filtering.
# This example describes the analysis of inhibition of CD94-NKG2A binding to HLA-E by exemplary modified peptides by bio-layer interferometry (BLI).
# Briefly, proteins and VL9 or Qdm derived peptides were produced as described in EXAMPLE 2 and EXAMPLE 3. BLI measurements to determine inhibition were performed as described in EXAMPLE 4.
row,Substance,able to reduce the binding of CD94-NKG2A to HLA-E (in words)
1,NH2-Val-Met-Ala-Pro-Arg-Thr-Leu-Cys(mSF)-Leu-OH (H-VMAPRTLC(mSF)L-OH; SMILES CSCC[C@H](NC(=O)[C@@H](N)C(C)C)C(=O)N[C@@H](C)C(=O)N1CCC[C@H]1C(=O)N[C@@H](CCCNC(=N)N)C(=O)N[C@H](C(=O)N[C@@H](CC(C)C)C(=O)N[C@@H](CSc1cccc(S(=O)(=O)F)c1)C(=O)N[C@@H](CC(C)C)C(=O)O)[C@@H](C)O) [VL9—8Cys(mSF)],not

# Same assay, conditions: BLI, CD94-NKG2A 200 nM
row,Substance,inhibition of CD94/NKG2A binding (in words)
1,NH2-Cha-hAr-Ala-Leu-hAr-Gln-Met-Mff-hAr-OH [Peptide B5.scrambled],no inhibition of binding

# Same assay, conditions: Table 13; inhibition of CD94-NKG2A binding to HLA-E; BLOD = below the limit of detection
row,Substance,BLI result
1,hAr-Nle-hAr-Gln-Lys(FITC)-Ala-Cha-hAr-Leu [B9_5Lys(FITC)],inhibition
2,hAr-Nle-hAr-Gln-Lys(TAMRA)-Ala-Cha-hAr-Leu [B9_5Lys(TAMRA)],inhibition
3,hAr-Nle-hAr-Gln-Mff-Ala-Cha-hAr-Leu-Leu-Pro-Glu-Thr-Gly-Gly [Peptide B9_LPETGG],inhibition
4,hAr-Nle-hAr-Gln-Mff-Ala-Cha-Lys(TAMRA)-Leu [B9_8Lys(TAMRA)],inhibition
5,NH2-Val-Met-Ala-Pro-Arg-Thr-Leu-Cys(mSF)-Leu-OH (H-VMAPRTLC(mSF)L-OH; SMILES CSCC[C@H](NC(=O)[C@@H](N)C(C)C)C(=O)N[C@@H](C)C(=O)N1CCC[C@H]1C(=O)N[C@@H](CCCNC(=N)N)C(=O)N[C@H](C(=O)N[C@@H](CC(C)C)C(=O)N[C@@H](CSc1cccc(S(=O)(=O)F)c1)C(=O)N[C@@H](CC(C)C)C(=O)O)[C@@H](C)O) [VL9—8Cys(mSF)],inhibition
6,hAr-Nle-hAr-Gln-Mff-Ala-Cha-Lys(ibu)-Leu [B9_8Lys(ibu)],inhibition
7,hAr-Nle-hAr-Gln-Lys(DOTA)-Ala-Cha-hAr-Leu [B9_5Lys(DOTA)],inhibition
8,hAr-Nle-hAr-Gln-Lys(ibu)-Ala-Cha-hAr-Leu [B9_5Lys(ibu)],inhibition
9,Lys(TAMRA)-Nle-hAr-Gln-Mff-Ala-Cha-hAr-Leu [B9_1Lys(TAMRA)],inhibition
10,hAr-Nle-hAr-Gln-Lys(CUM)-Ala-Cha-hAr-Leu [B9_5Lys(CUM)],inhibition

# Same assay, conditions: Table 15, peptides with additional amino acids at the N-terminus; BLOD = below the limit of detection
row,Substance,BLI result
1,Gly-hAr-Nle-hAr-Gln-Mff-Ala-Cha-hAr-Leu [Peptide G1_B9],inhibition

# Target: T1, HLA-E
# Experiment: Cross-linking of electrophilic peptides with [HLA-E+VL9], covalently bound HLA-E by LC-MS
# Assay type: binding
# Conditions: peptide in 10-fold excess with [HLA-E+VL9], 4 h at 37° C.
# Method: The Cys peptide variants were equipped with a mSF warhead in a Pd-mediated coupling using Pd oxidative addition complex 1 (FIGS. 6A and 6B) X* indicating position functionalized with the electrophilic warhead). Electrophilic analogs of VL9 were subjected to cross-linking reactions in a 10-fold excess with [HLA-E+VL9] for 4 h at 37° C., and the amount of covalently bound HLA-E was determined by LC-MS as described in EXAMPLE 4.
# Briefly, crosslinking reactions were performed as described in EXAMPLE 5.
Substance,cross-linking with HLA-E (in words),amount of covalently bound (cross-linked) HLA-E [%]
NH2-Val-Cys(mSF)-Ala-Pro-Arg-Thr-Leu-Phe-Leu-OH (H-VC(mSF)APRTLFL-OH; SMILES CC(C)C[C@H](NC(=O)[C@H](Cc1ccccc1)NC(=O)[C@H](CC(C)C)NC(=O)[C@@H](NC(=O)[C@H](CCCNC(=N)N)NC(=O)[C@@H]1CCCN1C(=O)[C@H](C)NC(=O)[C@H](CSc1cccc(S(=O)(=O)F)c1)NC(=O)[C@@H](N)C(C)C)[C@@H](C)O)C(=O)O) [VL9—2Cys(mSF)],no or only trace amounts of cross-linking,–
NH2-Val-Met-Ala-Pro-Cys(mSF)-Thr-Leu-Phe-Leu-OH (H-VMAPC(mSF)TLFL-OH; SMILES CSCC[C@H](NC(=O)[C@@H](N)C(C)C)C(=O)N[C@@H](C)C(=O)N1CCC[C@H]1C(=O)N[C@@H](CSc1cccc(S(=O)(=O)F)c1)C(=O)N[C@H](C(=O)N[C@@H](CC(C)C)C(=O)N[C@@H](Cc1ccccc1)C(=O)N[C@@H](CC(C)C)C(=O)O)[C@@H](C)O) [VL9—5Cys(mSF)],no or only trace amounts of cross-linking,–
NH2-Val-Met-Ala-Pro-Arg-Thr-Leu-Phe-Cys(mSF)-OH (H-VMAPRTLFC(mSF)-OH; SMILES CSCC[C@H](NC(=O)[C@@H](N)C(C)C)C(=O)N[C@@H](C)C(=O)N1CCC[C@H]1C(=O)N[C@@H](CCCNC(=N)N)C(=O)N[C@H](C(=O)N[C@@H](CC(C)C)C(=O)N[C@@H](Cc1ccccc1)C(=O)N[C@@H](CSc1cccc(S(=O)(=O)F)c1)C(=O)O)[C@@H](C)O) [VL9—9Cys(mSF)],no or only trace amounts of cross-linking,–
NH2-Val-Met-Ala-Pro-Arg-Thr-Leu-Cys(mSF)-Leu-OH (H-VMAPRTLC(mSF)L-OH; SMILES CSCC[C@H](NC(=O)[C@@H](N)C(C)C)C(=O)N[C@@H](C)C(=O)N1CCC[C@H]1C(=O)N[C@@H](CCCNC(=N)N)C(=O)N[C@H](C(=O)N[C@@H](CC(C)C)C(=O)N[C@@H](CSc1cccc(S(=O)(=O)F)c1)C(=O)N[C@@H](CC(C)C)C(=O)O)[C@@H](C)O) [VL9—8Cys(mSF)],–,87
NH2-Val-Met-Ala-Pro-Arg-Thr-Cys(mSF)-Phe-Leu-OH (H-VMAPRTC(mSF)FL-OH; SMILES CSCC[C@H](NC(=O)[C@@H](N)C(C)C)C(=O)N[C@@H](C)C(=O)N1CCC[C@H]1C(=O)N[C@@H](CCCNC(=N)N)C(=O)N[C@H](C(=O)N[C@@H](CSc1cccc(S(=O)(=O)F)c1)C(=O)N[C@@H](Cc1ccccc1)C(=O)N[C@@H](CC(C)C)C(=O)O)[C@@H](C)O) [VL9—7Cys(mSF)],–,22
NH2-Cys(mSF)-Met-Ala-Pro-Arg-Thr-Leu-Phe-Leu-OH (H-C(mSF)MAPRTLFL-OH; SMILES CSCC[C@H](NC(=O)[C@@H](N)CSc1cccc(S(=O)(=O)F)c1)C(=O)N[C@@H](C)C(=O)N1CCC[C@H]1C(=O)N[C@@H](CCCNC(=N)N)C(=O)N[C@H](C(=O)N[C@@H](CC(C)C)C(=O)N[C@@H](Cc1ccccc1)C(=O)N[C@@H](CC(C)C)C(=O)O)[C@@H](C)O) [VL9—1Cys(mSF)],no or only trace amounts of cross-linking,–
NH2-Val-Met-Ala-Pro-Arg-Cys(mSF)-Leu-Phe-Leu-OH (H-VMAPRC(mSF)LFL-OH; SMILES CSCC[C@H](NC(=O)[C@@H](N)C(C)C)C(=O)N[C@@H](C)C(=O)N1CCC[C@H]1C(=O)N[C@@H](CCCNC(=N)N)C(=O)N[C@@H](CSc1cccc(S(=O)(=O)F)c1)C(=O)N[C@@H](CC(C)C)C(=O)N[C@@H](Cc1ccccc1)C(=O)N[C@@H](CC(C)C)C(=O)O) [VL9—6Cys(mSF)],no or only trace amounts of cross-linking,–
NH2-Val-Met-Ala-Cys(mSF)-Arg-Thr-Leu-Phe-Leu-OH (H-VMAC(mSF)RTLFL-OH; SMILES CSCC[C@H](NC(=O)[C@@H](N)C(C)C)C(=O)N[C@@H](C)C(=O)N[C@@H](CSc1cccc(S(=O)(=O)F)c1)C(=O)N[C@@H](CCCNC(=N)N)C(=O)N[C@H](C(=O)N[C@@H](CC(C)C)C(=O)N[C@@H](Cc1ccccc1)C(=O)N[C@@H](CC(C)C)C(=O)O)[C@@H](C)O) [VL9—4Cys(mSF)],–,36
NH2-Val-Met-Cys(mSF)-Pro-Arg-Thr-Leu-Phe-Leu-OH (H-VMC(mSF)PRTLFL-OH; SMILES CSCC[C@H](NC(=O)[C@@H](N)C(C)C)C(=O)N[C@@H](CSc1cccc(S(=O)(=O)F)c1)C(=O)N1CCC[C@H]1C(=O)N[C@@H](CCCNC(=N)N)C(=O)N[C@H](C(=O)N[C@@H](CC(C)C)C(=O)N[C@@H](Cc1ccccc1)C(=O)N[C@@H](CC(C)C)C(=O)O)[C@@H](C)O) [VL9—3Cys(mSF)],–,73

# Reference: patent US20250074942A1, “COMPOSITIONS AND METHODS FOR COVALENT PEPTIDE-BASED MODULATORS OF HLA-E” (Calico Life Sciences LLC, priority 2022, published 2025)
